Changes are numbered by the printed parent chain.
T1: TIGIT-his tag antigen (UniProt Q495A1 22-141, limits assumed)
T1 construct: also called univalent TIGIT-his; not shown: his tag
T1 sequence (looked up): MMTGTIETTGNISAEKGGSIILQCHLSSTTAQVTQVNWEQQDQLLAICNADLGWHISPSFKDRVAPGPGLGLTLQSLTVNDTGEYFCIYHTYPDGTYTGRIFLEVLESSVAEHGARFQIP

T2: human TIGIT (antigen of the ELISA and of the m10D8 Biacore assay; construct not stated) (human, UniProt Q495A1 22-141)
T2 sequence: T1 sequence (looked up)

T3: mouse TIGIT (mouse, UniProt P86176 29-148, limits assumed)
T3 sequence: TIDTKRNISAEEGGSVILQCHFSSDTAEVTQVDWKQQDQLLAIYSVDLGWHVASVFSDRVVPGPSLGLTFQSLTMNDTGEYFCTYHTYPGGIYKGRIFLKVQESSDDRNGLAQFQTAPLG

T4: full-length human TIGIT on the cell surface (Jurkat-hTIGIT 2E6, CTI-Jurkat, primary human CD3+ cells) (human, UniProt Q495A1 22-244)
T4 sequence (looked up): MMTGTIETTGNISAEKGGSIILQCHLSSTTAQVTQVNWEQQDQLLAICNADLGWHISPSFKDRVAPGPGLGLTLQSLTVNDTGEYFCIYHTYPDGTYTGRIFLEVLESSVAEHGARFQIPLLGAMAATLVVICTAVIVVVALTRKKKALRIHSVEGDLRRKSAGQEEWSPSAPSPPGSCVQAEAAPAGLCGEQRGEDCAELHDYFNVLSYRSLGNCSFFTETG

B1: h10D8V1 (antibody, human IgG1, kappa)
heavy: not shown
light: DIQMTQSPSTLSAFVGDTITITCKASQDVKTAVSWYQQKPGQPPKLLIYWASTRHTGVPDRFSGSGSGTDYTLTISSLQAEDVAVYYCQQHYSTPWTFGQGTKVDIKRTVAAPSVFIFPPSDEQLKSGTASVVCLLNNFYPREAKVQWKVDNALQSGNSQESVTEQDSKDSTYSLSSTLTLSKADYEKHKVYACEVTHQGLSSPVTKSFNRGEC
notes: Humanized m10D8, first round
B2: h10D8V2 (antibody, human IgG1, kappa)
heavy: not shown
light: B1 light
notes: Same variable regions as h10D8V1; differs at EU positions 356 and 358 of the constant region
B3: 10A7 antibody (hamster anti-mouse TIGIT antibody, positive control) (antibody, V domains shown)
VH: EVQLVESGGGLTQPGKSLKLSCEASGFTFSSFTMHWVRQSPGKGLEWVAFIRSGSGIVFYADAVRGRFTISRDNAKNLLFLQMNDLKSEDTAMYYCARRPLGHNTFDSWGQGTLVTVSS
VL: DIVMTQSPSSLAVSPGEKVTMTCKSSQSLYYSGVKENLLAWYQQKPGQSPKLLIYYASIRFTGVPDRFTGSGSGTDYTLTITSVQAEDMGQYFCQQGINNPLTFGDGTKLEIKR
notes: also called positive anti-TIGIT antibody (10A7)
B4: h10D8OFKF (antibody, human IgG1, kappa, V domains shown)
VH: QVQLVESGGGVVQPGRSLRLDCKASGFTFSSYGMSWVRQAPGKGLELVATINSNGGSTYYPDSVKGRFTISRDNSKNTLFLQMNSLRAEDTAVYYCARLGTGTLGFAYWGQGTLVTVSS
VL: EIVMTQSPATLSLSPGERATLSCKASQDVKTAVSWYQQKPGQAPRLLIYWASTRATGIPARFSGSGSGTDYTLTISSLEPEDFAVYYCQQHYSTPWTFGQGTKVEIKR
modifications: fucose removed from the glycan (made in engineered CHO host cells)
B5: h10D8V4 (antibody, human IgG1, kappa, V domains shown)
VH: B4 VH with V5Q, V11L, R16G, D21S, K23A, S75A, F80Y
VL: DIVMTQSPSTLSASVGDRVTITCKASQDVKTAVSWYQQKPGQPPKLLIYWASTRHTGVPDRFSGSGSGTDYTLTISSLQAEDVAVYYCQQHYSTPWTFGQGTKVEIKR
B6: h10D8OF (antibody, human IgG1, kappa, V domains shown)
VH: B4 VH
VL: B4 VL
notes: Humanized m10D8, second round; LCDR2 is the mutant WASTRAT; also called anti-TIGIT antibody h10D8OF
B7: h10D8V3 (antibody, human IgG1, kappa, V domains shown)
VH: B4 VH with Q1E, V11L, R16G, D21S, K23A, F80Y
VL: B5 VL with V3Q, T10S, Q42K, P43A, D60S, A80P, V83F, V85T, Q100G
B8: h10D8V5 (antibody, human IgG1, kappa, V domains shown)
VH: QVQLQESGGGLVQPGGSLRLSCAASGFTFSSYGMSWVRQNPDKRLELVATINSNGGSTYYPDSVKGRFTISRDNAKNTLYLQMNSLRAEDTAMYYCARLGTGTLGFAYWGQGTLVTVSS
VL: B5 VL with S9K, P43S, V85L, Q100G
B9: Tiragolumab (positive control antibody) (antibody, human IgG1, kappa, V domains shown)
VH: EVQLQQSGPGLVKPSQTLSLTCAISGDSVSSNSAAWNWIRQSPSRGLEWLGKTYYRFKWYSDYAVSVKGRITINPDTSKNQFSLQLNSVTPEDTAVFYCTRESTTYDLLAGPFDYWGQGTLVTVSS
VL: not shown
B10: recombinant mouse anti-human TIGIT antibody m10D8 (antibody, mouse IgG2a, V domains shown)
VH: B8 VH with Q1E, Q3K, R19K, N84S, R87K, A88S
VL: DIVMTQAHKFMSTSGGDRVSITCKASQDVKTAVSWYQQKPGQSPKLLIYWASTRHTGVPDRFTGSGSGTDYTLTISSVQAEDLALYYCQQHYSTPWTFGGGTKLEIKR

Experiments:
TIGIT-his tag antigen [1] = target: T1, TIGIT-his tag antigen; test: SPR-Biacore, TIGIT-his tag antigen
[2] = target: T2, human TIGIT (antigen of the ELISA and …); test: ELISA, binding to TIGIT
TIGIT-his tag antigen [3] = target: T1, TIGIT-his tag antigen; test: SPR-Biacore, TIGIT-his tag antigen (second batch)
[4] = target: T2, human TIGIT (antigen of the ELISA and …); test: ELISA, binding to TIGIT (FIG. 12)
[5] = target: T5, TIGIT-Fc fusion protein (human TIGIT extracellular region fused to human IgG1 constant region) (human); test: competition ELISA: TIGIT-Fc coated at 2 µg/mL, antibody titrated in 2 µg/mL PVR-Fc-bio (blocked ligand), OD450
mouse TIGIT = target: T3, mouse TIGIT; test: ELISA on mouse TIGIT, OD450
[6] = target: T4, full-length human TIGIT on the cell …; test: cell-based or functional assay
[7] = target: T2, human TIGIT (antigen of the ELISA and …); test: ELISA, binding to TIGIT (FIG. 11)
[8] = target: T5, TIGIT-Fc fusion protein (human TIGIT …); test: competition ELISA, blocks PVR binding to TIGIT (method of Example 3)
[9] = target: T4, full-length human TIGIT on the cell …; test: flow cytometry competition with 80 nM biotinylated PVR-Fc on Jurkat-hTIGIT cells
Protocol: (§1) The antibody was serially two-fold diluted from 15 nM to the 10th concentration (including 0 nM). The 10 concentration gradients of antibody were separately transferred into 10 centrifuge tubes each containing 1×10⁶ Jurkat-hTIGIT cells. The cells were then resuspended, and the mixture was incubated at 4° C. for 1 hour. The cells were centrifuged. The supernatant was discarded and the cells were washed twice with PBS. The cells were resuspended in 100 μL of 1:2000 diluted streptavidin PE (Thermo, Cat. No.: 12-4317-87) and incubated at 4° C. for 40 minutes. The cells were centrifuged, and the supernatant was discarded. The cells were washed twice with PBS, resuspended in 200 μL of PBS, and were detected for fluorescent signal using a flow analyzer (mean FL2-A). Finally, the collected fluorescent signals were plotted by 4-parameter fitting for analysis, and the IC₅₀ was calculated.

[10] = target: T4, full-length human TIGIT on the cell …; test: binding to Jurkat-hTIGIT 2E6 cells, flow cytometry (FIG. 23)
[11] = target: T4, full-length human TIGIT on the cell …; test: flow cytometry on Jurkat-hTIGIT cells: antibody titrated against biotinylated PVR-Fc (blocked ligand), detected with streptavidin PE, mean FL2-A
Protocol: as §1

TIGIT-his tag antigen [12] = target: T1, TIGIT-his tag antigen; test: SPR-Biacore; series 3.125 to 50 nM printed on the panel
[13] = target: T2, human TIGIT (antigen of the ELISA and …); test: Biacore SPR; antigen not given

| Binder | Kd (TIGIT-his tag antigen [1]) [nM] | koff (TIGIT-his tag antigen [1]) [s⁻¹] | kon (TIGIT-his tag antigen [1]) [M⁻¹ s⁻¹] | EC50 [2] [µg/mL] | Kd (TIGIT-his tag antigen [3]) [nM] | koff (TIGIT-his tag antigen [3]) [s⁻¹] | kon (TIGIT-his tag antigen [3]) [M⁻¹ s⁻¹] | EC50 [4] [µg/mL] | EC50 [7] [µg/mL] | IC50 [8] [µg/mL] | IC50 [9] [nM] | further results |
| --- | --- | --- | --- | --- | --- | --- | --- | --- | --- | --- | --- | --- |
| B1 | 2.18 | 0.000446 | 205000 | 0.0762 |  |  |  |  |  |  |  |  |
| B2 | 2.55 | 0.000492 | 193000 | 0.0924 | 0.468 | 0.00048 | 1.02e+06 | 0.0531 |  |  |  |  |
| B3 |  |  |  |  |  |  |  |  |  |  |  | IC50 [5]: 0.263 µg/mL; EC50 (read off the curve) (mouse TIGIT): ~0.02 µg/mL |
| B4 |  |  |  |  |  |  |  |  |  |  |  | ADCC activity EC50 [6]: 0.0152 nM; ADCC activity, fold of h10D8OF [6]: 8.8 times that of h10D8OF |
| B5 |  |  |  |  |  |  |  |  | 0.0256 | 0.217 | 15.8 |  |
| B6 |  |  |  |  | 3.63 | 0.00183 | 502000 | 0.0427 | 0.0233 | 0.159 | 11.3 | EC50 [10]: 0.696 nM; ADCC activity EC50 [6]: 0.125 nM; IC50 [11]: 0.656 nM |
| B7 | 14.1 | 0.00114 | 81200 | 0.0526 |  |  |  |  |  |  |  |  |
| B8 |  |  |  |  |  |  |  |  | 0.0241 | 0.284 | 10.4 |  |
| B9 |  |  |  |  | 0.113 | 9.24e-05 | 818000 | 0.0536 |  | 0.429 |  | EC50 [10]: 1.91 nM; Kd (TIGIT-his tag antigen [12]): 0.133 nM; IC50 [11]: 2.38 nM |
| B10 |  |  |  |  |  |  |  |  |  |  |  | IC50 [5]: 0.273 µg/mL; Kd [13]: 0.197 nM; koff [13]: 0.0002 s⁻¹; kon [13]: 1.02e+06 M⁻¹ s⁻¹; binding result (mouse TIGIT): no binding (tested: about 2 µg/mL) |

Reference: US20220348650A1 (BIO THERA SOLUTIONS, published 2022)
